# Test results taken from patent publication US20050019842A1.
# What was measured:
# [1] = target: mouse IgG (Sigma Chemical Co., product number I5381); assay: resonant light scattering; step 3, 50 µg/mL rabbit anti-mouse IgG in step 2 background on mouse IgG microparticles; against the starting spectra
# [2] = target: mouse IgG (Sigma Chemical Co., product number I5381); assay: resonant light scattering; step C, 40 µg/mL Fab specific goat anti-mouse IgG on mouse IgG held by Protein G′ microparticles; shift is cumulative against the unbound reference (0.054 nm after step B)
# [3] = target: avidin (from egg white, Sigma Chemical Co., product number A9275) (UniProt P02701); assay: resonant light scattering; step C, 50 µg/mL antibody on avidin held on biotinylated microparticles; shift is cumulative against the unbound reference (avidin step alone 0.031 nm); N=18
# [4] = target: Protein G′ (Sigma Chemical Co. product P-4689) (group G Streptococcal strain) (UniProt P19909); assay: resonant light scattering, real time; 500 µg/mL mouse IgG on Protein G′ microparticles; time 0 min (reference)
# [5] = target: Protein G′ (Sigma Chemical Co. product P-4689) (group G Streptococcal strain) (UniProt P19909); assay: resonant light scattering, real time; 50 µg/mL mouse IgG on Protein G′ microparticles; time 11 min
# [6] = target: Protein G′ (Sigma Chemical Co. product P-4689) (group G Streptococcal strain) (UniProt P19909); assay: resonant light scattering, real time; 500 µg/mL mouse IgG on Protein G′ microparticles; time 16 min
# [7] = target: Protein G′ (Sigma Chemical Co. product P-4689) (group G Streptococcal strain) (UniProt P19909); assay: resonant light scattering, real time; 10 µg/mL mouse IgG on Protein G′ microparticles; time 60 min
# [8] = target: Protein G′ (Sigma Chemical Co. product P-4689) (group G Streptococcal strain) (UniProt P19909); assay: resonant light scattering, real time; 10 µg/mL mouse IgG on Protein G′ microparticles; time 20 min
# [9] = target: Protein G′ (Sigma Chemical Co. product P-4689) (group G Streptococcal strain) (UniProt P19909); assay: resonant light scattering, real time; 10 µg/mL mouse IgG on Protein G′ microparticles
# [10] = target: Protein G′ (Sigma Chemical Co. product P-4689) (group G Streptococcal strain) (UniProt P19909); assay: resonant light scattering, real time; 10 µg/mL mouse IgG on Protein G′ microparticles; time 11 min
# [11] = target: Protein G′ (Sigma Chemical Co. product P-4689) (group G Streptococcal strain) (UniProt P19909); assay: resonant light scattering, real time; 10 µg/mL mouse IgG on Protein G′ microparticles; time 25 min
# [12] = target: Protein G′ (Sigma Chemical Co. product P-4689) (group G Streptococcal strain) (UniProt P19909); assay: resonant light scattering, real time; 50 µg/mL mouse IgG on Protein G′ microparticles; time 35 min
# [13] = target: Protein G′ (Sigma Chemical Co. product P-4689) (group G Streptococcal strain) (UniProt P19909); assay: resonant light scattering; step B, 50 µg/mL mouse IgG on Protein G′ microparticles, 0.5 h; against the unbound reference
# [14] = target: Protein G′ (Sigma Chemical Co. product P-4689) (group G Streptococcal strain) (UniProt P19909); assay: resonant light scattering, real time; 500 µg/mL mouse IgG on Protein G′ microparticles; time 35 min
# [15] = target: Protein G′ (Sigma Chemical Co. product P-4689) (group G Streptococcal strain) (UniProt P19909); assay: resonant light scattering, real time; 10 µg/mL mouse IgG on Protein G′ microparticles; time 0 min (reference)
# [16] = target: Protein G′ (Sigma Chemical Co. product P-4689) (group G Streptococcal strain) (UniProt P19909); assay: resonant light scattering, real time; 10 µg/mL mouse IgG on Protein G′ microparticles; time 5 min
# [17] = target: Protein G′ (Sigma Chemical Co. product P-4689) (group G Streptococcal strain) (UniProt P19909); assay: resonant light scattering, real time; 10 µg/mL mouse IgG on Protein G′ microparticles; time 16 min
# [18] = target: Protein G′ (Sigma Chemical Co. product P-4689) (group G Streptococcal strain) (UniProt P19909); assay: resonant light scattering, real time; 50 µg/mL mouse IgG on Protein G′ microparticles; time 20 min
# [19] = target: Protein G′ (Sigma Chemical Co. product P-4689) (group G Streptococcal strain) (UniProt P19909); assay: resonant light scattering, real time; 50 µg/mL mouse IgG on Protein G′ microparticles; time 30 min
# [20] = target: Protein G′ (Sigma Chemical Co. product P-4689) (group G Streptococcal strain) (UniProt P19909); assay: resonant light scattering, real time; 50 µg/mL mouse IgG on Protein G′ microparticles; time 0 min (reference)
# [21] = target: Protein G′ (Sigma Chemical Co. product P-4689) (group G Streptococcal strain) (UniProt P19909); assay: resonant light scattering, real time; 500 µg/mL mouse IgG on Protein G′ microparticles; time 20 min
# [22] = target: Protein G′ (Sigma Chemical Co. product P-4689) (group G Streptococcal strain) (UniProt P19909); assay: resonant light scattering, real time; 10 µg/mL mouse IgG on Protein G′ microparticles; time 50 min
# [23] = target: Protein G′ (Sigma Chemical Co. product P-4689) (group G Streptococcal strain) (UniProt P19909); assay: resonant light scattering, real time; 500 µg/mL mouse IgG on Protein G′ microparticles; time 25 min
# [24] = target: Protein G′ (Sigma Chemical Co. product P-4689) (group G Streptococcal strain) (UniProt P19909); assay: resonant light scattering, real time; 500 µg/mL mouse IgG on Protein G′ microparticles; time 30 min
# [25] = target: Protein G′ (Sigma Chemical Co. product P-4689) (group G Streptococcal strain) (UniProt P19909); assay: resonant light scattering, real time; 500 µg/mL mouse IgG on Protein G′ microparticles; time 11 min
# [26] = target: Protein G′ (Sigma Chemical Co. product P-4689) (group G Streptococcal strain) (UniProt P19909); assay: resonant light scattering, real time; 500 µg/mL mouse IgG on Protein G′ microparticles; time 5 min
# [27] = target: Protein G′ (Sigma Chemical Co. product P-4689) (group G Streptococcal strain) (UniProt P19909); assay: resonant light scattering, real time; 10 µg/mL mouse IgG on Protein G′ microparticles; time 40 min
# [28] = target: Protein G′ (Sigma Chemical Co. product P-4689) (group G Streptococcal strain) (UniProt P19909); assay: resonant light scattering, real time; 10 µg/mL mouse IgG on Protein G′ microparticles; time 35 min
# [29] = target: Protein G′ (Sigma Chemical Co. product P-4689) (group G Streptococcal strain) (UniProt P19909); assay: resonant light scattering, real time; 10 µg/mL mouse IgG on Protein G′ microparticles; time 30 min
# [30] = target: Protein G′ (Sigma Chemical Co. product P-4689) (group G Streptococcal strain) (UniProt P19909); assay: resonant light scattering, real time; 50 µg/mL mouse IgG on Protein G′ microparticles; time 5 min
# [31] = target: mouse IgG (Sigma Chemical Co., product number I5381); assay: resonant light scattering; step 1, 2.2 mg/mL E. coli cellular extract proteins on mouse IgG microparticles; against the starting spectra
# [32] = target: mouse IgG (Sigma Chemical Co., product number I5381); assay: resonant light scattering; step 2, 50 µg/mL anti-Alexa rabbit IgG in cell extract background on mouse IgG microparticles; against the starting spectra
# Chain of UniProt P02701 (P02701 25-152 limits assumed): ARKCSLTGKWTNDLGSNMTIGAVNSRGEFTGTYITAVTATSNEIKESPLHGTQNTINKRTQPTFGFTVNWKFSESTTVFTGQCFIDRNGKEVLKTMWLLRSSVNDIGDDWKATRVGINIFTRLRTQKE
substance,measurement,setting,value
"rabbit anti-mouse IgG (H+L) (unconjugated, Pierce, product 31188) (antibody)",resonance wavelength shift,[1],0.056 nm
Fab specific goat anti-mouse IgG (Sigma Chemical Co. product M 6898) (antibody),resonance wavelength shift,[2],0.111 nm
"biotinylated anti-bovine immunoglobulin G (IgG) [H+L] [Goat] (Rockland Inc., product number 601-1602) (antibody)",resonance wavelength shift,[3],0.069 nm
"mouse IgG (Sigma Chemical Co., product number I5381) (antibody)",wavelength shift,[4],0 nm
same,wavelength shift,[5],0.037 nm
same,wavelength shift,[6],0.05 nm
same,wavelength shift,[7],0.043 nm
same,wavelength shift,[8],0.03 nm
same,percent of the saturation binding level,[9],70%
same,wavelength shift,[10],0.022 nm
same,wavelength shift,[11],0.041 nm
same,wavelength shift,[12],0.06 nm
same,resonance wavelength shift,[13],0.054 nm
same,wavelength shift,[14],0.054 nm
same,wavelength shift,[15],0 nm
same,wavelength shift,[16],0.01 nm
same,wavelength shift,[17],0.026 nm
same,wavelength shift,[18],0.051 nm
same,wavelength shift,[19],0.058 nm
same,wavelength shift,[20],0 nm
same,wavelength shift,[21],0.053 nm
same,wavelength shift,[22],0.043 nm
same,wavelength shift,[23],0.052 nm
same,wavelength shift,[24],0.054 nm
same,wavelength shift,[25],0.049 nm
same,wavelength shift,[26],0.037 nm
same,wavelength shift,[27],0.041 nm
same,wavelength shift,[28],0.036 nm
same,wavelength shift,[29],0.036 nm
same,wavelength shift,[30],0.032 nm
E. coli cellular extract proteins,resonance wavelength shift,[31],-0.005 nm
"anti-Alexa Fluor 488 rabbit IgG (Molecular Probes, Inc. product number A-11094) (antibody)",resonance wavelength shift,[32],-0.004 nm
